In the RNAGym collection of RNA variant scans (doi:10.1073/pnas.2313332121):
Fewer inactive variants are shown than the library holds.

B1: TPR 5TU (parent)
chain: GGAUCUUCUCGAUCUAACAAAAAAGACAAAUCUGCCACAAAGCUUGAGAGCAUCUUCGGAUGCAGAGGCGGCAGCCUUCGGUGGCGCGAUAGCGCCAACGUUCUCAACUAUGACACGCAAAACGCGUGCUCCGUUGAAUGGAGUUUAUCAUG

Variants of: B1
Assay: polymerase ribozyme fitness, log enrichment relative to wild type (log ratio); higher = more active; in vitro selection for triplet polymerase activity
Procedure, shortened: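 A single round of triplicate in vitro selection, including frozen incubation at −7 °C, was applied to PCR-built, transcribed mutant libraries of each subunit of a heterodimeric triplet polymerase ribozyme. Illumina sequencing of input and output libraries retained genotypes with ≥10 input reads and ≥1 read per output. Fitness is the base-2 logarithm of genotype enrichment divided by wild-type enrichment, from inverse-variance-weighted replicate averages.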

| Variant | polymerase ribozyme fitness (log ratio) |
| --- | --- |
| G92U C116G C132G | -3.8 |
| C10G U53A | -3.48 |
| U6A A23U G83A C105U C108A | ≤ -4.2 |
| A12C A37C G50A C79G A98G | ≤ -4.2 |
| U82C A89U C96G G100A A106U C114U A137C | ≤ -4.2 |
| U7A A17U G25C G88C C116A | ≤ -4.2 |
| A47U G83A U101C G117U | -0.198 |
| G88A G94U U146C | -4.14 |
| A113C | -2.35 |
| A17G A39U C54G A64C A89C U90G A122U U139C U144A | ≤ -4.2 |
| U45A A91U | -3.74 |
| C54G C87U A122G U145C | -1.82 |
| C10G C93A A97U C116U | ≤ -4.2 |
| A20U U53G C72G C95G C108U C118A | ≤ -4.2 |
| A28C C108A G136A | ≤ -4.2 |
| U4C C32G C103G | ≤ -4.2 |
| C51A C57A C95A G126A A147G | ≤ -4.2 |
| A20U A22G A52U A73G C85U G124C | -3.91 |
| G59C G84U G124C | -2.97 |
| C35U G58A A150G | -1.55 |
| C5U U13G A22U U55A G65U G70U C87A C95U A98G A137C G141A G143C | ≤ -4.2 |
| A19U A22G G67U C93A G126A C131A | ≤ -4.2 |
| C116A G136A | 1.97 |
| U13G A17U G88A C96G | ≤ -4.2 |

| Variant | polymerase ribozyme fitness (log ratio) |
| --- | --- |
| C27G A41U C87U A150C | -3.92 |
| C85A G86U | -3.2 |
| U9G C14G A24G U55A U139A | ≤ -4.2 |
| A28U A37C | -3.93 |
| U45A G50C C54G G67A C87A A91U A115C | ≤ -4.2 |
| A20U G141C | -1.4 |
| C57G C85A C118U G143C | -4.1 |
| A21C G59C A98G C125G G136A U146G | -1.19 |
| A3C A29C A37U C57U C87U A142G U148C | ≤ -4.2 |
| A16G G58A C129G | -4.19 |
| C8A U15C C75A U109C | ≤ -4.2 |
| U61A C149U | -1.63 |
| C51U U56A G65U G81C G136C A138G G141C A142G | ≤ -4.2 |
| A20C G50A C63A C85U G117U | -1.09 |
| A49U G74A C79A U90A G94A C123G G133U | ≤ -4.2 |
| U109G | -0.578 |
| A47C G50U G59A G70A C79U U82G C95U G124A U144G | ≤ -4.2 |
| G11U U31A A60G C93A | -3.94 |
| C10U U15G G58U A73G G83A A91C C95U U134C | ≤ -4.2 |
| C5G A37U C43U A98G A121G | ≤ -4.2 |
| A17C C85G G94A C123A G124U | -1.12 |
| C85A C114U | -3.28 |
| A3U C57A G71A A91G | ≤ -4.2 |
| C54U C76A C96A U127C G136A | -3.34 |

| Variant | polymerase ribozyme fitness (log ratio) |
| --- | --- |
| C75G G86U C95U C99U | ≤ -4.2 |
| C54U A97U A107C | ≤ -4.2 |
| C36A U61G A64C C118A A147C | ≤ -4.2 |
| A3U G59A C75U C93A A138G | -3.95 |
| G58C C116G | 0.494 |
| C96A C118A | -0.912 |
| G83A G117C | -0.0387 |
| U31G U33G U61G C72U C87G A106C U135G | ≤ -4.2 |
| G48C C51U C54U C57U U90C A138G U144A | ≤ -4.2 |
| C5G U55G A73U | -3.69 |
| C57U U104C C116G A120U C123A | 0.628 |
| U15G C85A | -1.35 |
| C18A G50A G68A C96G C99U G136A | ≤ -4.2 |
| A19U U33G A40C C87U C93U C103A | ≤ -4.2 |
| U104A C125A | -0.813 |
| U55A A60C C85U A89G | -4.15 |
| A29C A30U A89C | ≤ -4.2 |
| C54U G84A | -0.613 |
| U53A U144G | -2.22 |
| A47C U56G C85G C118U A121U U144G | -1.81 |
| A21G G50C A66C U82C G86C C114G A120C A150G | ≤ -4.2 |
| C10G A40G A49C U102G G128A | ≤ -4.2 |
| G48U G80U C96G | ≤ -4.2 |
| U9A A28C A64C C72U U78G | ≤ -4.2 |

| Variant | polymerase ribozyme fitness (log ratio) |
| --- | --- |
| U45A A49U C75A G83C C87G G117U U127A U139A G152U | ≤ -4.2 |
| A39G C69G C93U C103G C108U C116U A137C | ≤ -4.2 |
| G58U C69A C85U C132G G133C G141C | ≤ -4.2 |
| A26C A39G G42U A60G U78C C93G G117A | ≤ -4.2 |
| C14G A47C A52G A115C A119G | ≤ -4.2 |
| U7G U55C C99U | ≤ -4.2 |
| A52G C93A G140A | ≤ -4.2 |
| A24C A52G G84C G88U C95U C96U U102G | ≤ -4.2 |
| A23U A47G U55A | ≤ -4.2 |
| C8A U13G A30U U82A U101G | ≤ -4.2 |
| U6G U15A C95G C96U U101G C103A C131A C149A | ≤ -4.2 |
| G42A G88A C96A C118G G126U | ≤ -4.2 |
| U13G A16U U33G G50C G81C G143A | ≤ -4.2 |
| A52G C93U U101C C105U | -2.43 |
| A30G A49G U56A A66U C79U C85U G128A | ≤ -4.2 |
| A49U G50A A60C | -2.62 |
| C54A G86U A97G | ≤ -4.2 |
| A91G A98G U130G C131A A150U | ≤ -4.2 |
| C18U A26C C38U U78G A98U U145G U151A | ≤ -4.2 |
| A3U U33A C43U G84A C85A G140C U146C | ≤ -4.2 |
| C76A G86A A89U G133C U145G | ≤ -4.2 |
| C18G G58C G81A | -0.953 |
| A26U C85U C96U G143U | -3.94 |
| C27G C95U | -3.51 |

| Variant | polymerase ribozyme fitness (log ratio) |
| --- | --- |
| A73G G140A | -2.98 |
| U6C A40C G50U A97U U104A G124C U130A | ≤ -4.2 |
| C32U G81C C114G | ≤ -4.2 |
| U9G C75G C76A C85G | ≤ -4.2 |
| C125G G126A | -3.42 |
| A41G U61A A113U | -2.93 |
| C54U C69A | -3.63 |
| A52U C54U U55A C57G A73G G83C | ≤ -4.2 |
| A60G U104G | 0.24 |
| A20C G68C G83C A89U U102A G140U | ≤ -4.2 |
| A39U A60U G84U | -3.96 |
| A21U C27G C36A G117C | -4.02 |
| C32G A91G | ≤ -4.2 |
| C14G A52C C69U U77G G92A | ≤ -4.2 |
| C38U G68C G88A A147C | ≤ -4.2 |
| G11C A22C G50U U56A C96A G141A | -3.94 |
| C69U G86A | -1.13 |
| C5G C18G A41C G152U | -3.98 |
| C35U U45G G58A U61G C76U C85A C93G U104A A107C G152A | ≤ -4.2 |
| G50C C57U U82G A121G G143C | ≤ -4.2 |
| C75U G92A | -2.99 |
| C14G A19U C116A | -2.21 |
| C27U G67A C75U G86C U144C C149A A150G | ≤ -4.2 |
| U15G G70A C87U U90C C93U | ≤ -4.2 |

| Variant | polymerase ribozyme fitness (log ratio) |
| --- | --- |
| A24G U55A | -3.22 |
| G58A C87U A89U A106U | -2.54 |
| A12G A21C C32U U55G | -1.77 |
| U31A C38G G58A | 0.153 |
| A20U C93U | -1.76 |
| A12G A16U G42C C75U C129U | ≤ -4.2 |
| C93U A115G | -3 |
| C14U U53A | -2.41 |
| A52C G94C | -2.26 |
| A39U A49G G58A G65A U111G A150G | ≤ -4.2 |
| A20U | -1.18 |
| A20C | -0.413 |
| G67U C87U U104G C132G U144C U148G | ≤ -4.2 |
| C129A G133C | -3.55 |
| A3C C18G A30G C116G | ≤ -4.2 |
| A49U U82G C105U C116U U145A | -2.58 |
| C76U U101G G124A | -0.411 |
| A28U U82C C93U C96G C105A | ≤ -4.2 |
| A16U A20G A37C C95G U102G A113U | ≤ -4.2 |
| A16C A22C C54U A113U | -4.06 |
| U13G A23U A37C G83A C96U | ≤ -4.2 |
| A20U G67A | -3.89 |
| G25A C87G A98U | ≤ -4.2 |
| U7G C87U | -3.04 |

| Variant | polymerase ribozyme fitness (log ratio) |
| --- | --- |
| A60G U101A G141U A147C | -4.13 |
| A40U G126C | -0.388 |
| U6A U139C | -3.88 |
| U6C C10G A28U C57U C63U U77A C85U G86U U144C | ≤ -4.2 |
| A23G G94U U148C | ≤ -4.2 |
| A12G C54U C57A C75U | -0.0208 |
| G50C G65C C87U | -4.13 |
| A39U A138C A150G | -4.1 |
| A24U C36G U111C C116A | ≤ -4.2 |
| C35U G50A U82C G141U | -4.1 |
| A37U A40G C76G C93A C103G | ≤ -4.2 |
| C5A G50U G84A U135A U139A G141C | ≤ -4.2 |
| C38A C93A C131G A150U | ≤ -4.2 |
| A47G U53C U134G | -3.45 |
| C75G C93A C108G C132A G140A G143A | -4.12 |
| A3C A29U A91U | ≤ -4.2 |
| C43A U55A G92A | ≤ -4.2 |
| C14A A49C G59C G62A A91U G100A C114U A137G U146C | ≤ -4.2 |
| G59U C76G A91G A106C C114U C125U G128A G143U | ≤ -4.2 |
| C96G A121U | -0.582 |
| U56G C129U | -0.408 |
| A23U A73U G88C | ≤ -4.2 |
| U56G U144A | -0.473 |
